From patent publication US6800481B1, “Stable macroscopic membranes formed by self-assembly of amphiphilic peptides and uses therefor” (priority 1992, dated 2004)
Where a chain is given by its changes, count along the chain named. Entries after “also recorded” stand apart in the source; their conditions may differ.

What was measured:
[1] = format: physicochemical
Procedure: Circular dichroism (CD) spectra were taken on an Aviv Model 60DS spectropolarimeter using program 60HDS for data processing. Because EAK16 contains both positively and negatively charged residues, the peptide itself can serve as a buffer. CD samples were prepared and measured at 25° C., unless otherwise indicated. All reagents were ultrapure and solutions were filtered through a […] before use. Circular dichroism (CD) spectroscopy was used to monitor the stability of the β-sheet structure of EAK16 under various conditions. Dilute […] concentrations. […] A 3 mM stock EAK16 solution was mixed in water to a concentration of 20 μM, allowed to equilibrate, and the CD spectrum measured. The solution was then diluted five times by two-fold serial dilutions to final concentrations of […], 10, 5.0, 2.5, 1.25 and 0.625 μM, allowed to equilibrate and CD spectra taken. […] Temperature. The CD spectra of 8 μM EAK16 at 25, 37, 55, 70 and 90° C. in water were measured. […] EAK16 has a calculated pI Of 6.71. It was assumed that changes of pH would have a great effect on the β-sheet structure, especially when the charged groups are neutralized. […] The 3 mM stock solution of EAK16 was mixed with pH buffers at pH 1.5, 3, 7, and 11 to a final concentration of 10 μM and allowed to equilibrate for 4 hours before taking CD measurements. […] Chemical denaturants. […] The peptide (3 mM stock) was mixed with water or different concentrations of guanidine-HCl or urea and allowed to incubate overnight before taking CD measurements. SDS was added to a peptide solution to a final concentration of 0.1% and incubated for 30 minutes.

[2] = Testing of peptides for macroscopic membrane formation (phase-contrast microscope, Congo Red staining); format: physicochemical; details: for formation of macroscopic membranes: identical conditions, in words; for membranous structure in DMEM: DMEM medium
Source text: The effect of length and sequence on membrane formation was examined using several peptides (Table 1 and Example 3). […] Very long peptides, e.g., of about 200 amino acids, may encounter problems due to insolubility and intramolecular interactions which destabilize membrane formation. […] The optimal lengths for membrane formation will probably vary with the amino acid composition.
The EAK12 and EAK16 tested for membrane formation were acetylated and aminylated at both N- and C-terminal ends. […] The peptides were initially dissolved in water (5 mg/ml) or in 23% acetonitrile (10 mg/ml). A volume of 5-10 microliters of the dissolved peptides were applied to the DMEM medium, PBS or water. The formation of the membrane was first observed under a phase-contrast microscope and then, by the naked eye after staining with Congo Red.

[3] = tested on: B-DNA; test: Binding of small peptides to B-DNA and conversion to the Z conformation; format: biochemical
Source text: A subportion of this histone-like region from amino acids 306 to 339 (heavily underlined in FIG. 1) is a likely candidate for a DNA-binding domain. […] The KAKAX motif (SEQ ID NO: 31) (where X is variable) occurs twice in the 306-339 region and also occurs in the peptide, EAK16. These observations are consistent with the structural similarity of this region to histone H1.

[4] = tested on: poly(dG-m^5dC) in the Z-form; test: Gel retardation (band shift) and competition assay for Z-DNA binding; details: for competition of binding to poly(dG-m^5dC) by non-Z DNA: excess poly(dG-dC), poly(dA-dT), salmon sperm DNA; for affinity for Z-DNA relative to B-DNA: not purified to homogeneity, estimated
Source text: Two probes that can be stabilized in the Z-form were used to detect potential Z-DNA binding proteins. One is an ˜600 bp fragment of ^32P-labelled poly(dG-m^5dC) that is stabilized in the Z-DNA form by millimolar concentrations of MgCl2 (Behe and Felsenfeld, 1981); the other is an oligonucleotide, [^32P] (dG-BR^5dC)22, that can be stabilized by millimolar concentrations of MgCl2 or μM concentrations of Co(NH3)6^3+. Yeast whole cell extract, nuclear extracts, and phosphocellulose column fractions of yeast nuclear extracts were assayed by a gel retardation assay using either of these ^32P-labelled DNA fragments as a probe. The gel retardation assay was carried out with the probe in the presence of 10 mM MgCl2 and a 400-fold excess of sheared salmon sperm B-DNA. Under these conditions, the polymer assumes the Z-DNA conformation. A Z-DNA-specific antibody was used for positive control. 1 μl of each fraction of yeast nuclear extract obtained by salt elution from the phosphocellulose column with 0.2-0.5 M potassium phosphate (pH 7.4) was added to the assays.
In order to determine if these band shifts were the result of authentic Z-DNA binding, negatively supercoiled plasmids of pUC19 and pUC19(GC) were used as competitor DNAs in gel retardation competition assays. In these assays, [^32P] (dG-Br^5dC)22 was incubated in the presence of a 2000-fold excess of sheared salmon sperm DNA with additions as follows: 1) no addition; 2) a monoclonal anti-Z-DNA antibody (mAb); 3) mAb plus additional 50 ng of negatively supercoiled plasmid pUC19 (without a Z-DNA insert); 4) mAb plus 25 ng of negatively supercoiled pUC19(CG) (containing a Z-DNA segment); 5) fraction F1 yeast protein; 6) F1 plus additional 50 ng pUC19; and 7) F1 plus pUC19(GC). pUC19(GC) contains a 14 bp (dG-dC)7 insert that can adopt the Z-conformation upon negative supercoiling. pUC19(GC) was assayed for its resistance to BssHII digestion (Vardimon and Rich, 1983; Azorin et al., 1984) to confirm the presence of the Z-DNA prior to the assay.
However, enough material was in solution so that crude cell extracts and partially purified zuotin could be prepared and assayed by the band shift assay. Recombinant zuotin was partially purified by chromatography of crude cell extract from induced pETZU01 transformants through phosphocellulose. ^32P-labelled poly(dG-m5dC) in the Z-form was incubated with the crude cell extract or with partially purified zuotin in the presence of sheared salmon sperm DNA, poly(dG-dC), or poly(dG-Br^5dC). Assays were run on: 1) labelled probe alone; 2) crude cell extract from induced pET8c transformants; 3) crude cell extract from uninduced pETZU01 transformants; 4) crude cell extract from induced pETZU01 transformants; 5) partially purified recombinant zuotin; 6) partially purified yeast zuotin; 7)-10) partially purified recombinant zuotin with 20-, 40-, 100-, and 200-fold excess of salmon sperm DNA; 11)-12) partially purified recombinant zuotin with 20- and 40-fold excess of poly(dG-dC); 13)-14) partially purified recombinant zuotin with 20- and 40-fold excess of poly(dG-Br^5dC); 15)-17) partially purified yeast zuotin with 20-, 40-, and 200-fold excess of salmon sperm DNA; 18) partially purified yeast zuotin with 40-fold excess of poly(dG-dC); 19) partially purified yeast zuotin with 40-fold excess of poly(dG-Br^5dC); and 20) an anti-Z-antibody (as control).
A gel retardation assay was employed to detect proteins with affinity to left-handed Z-DNA. […]

Ac-HN-AEAKAEAEAKAK-CONH2 (Ac-AEAKAEAEAKAK-NH2) [EAK12]
secondary structure and its stability [1]: denature from a β-sheet structure at high temperatures | Structure ([1]; secondary structure): α, β | membranous structure in PBS [2]: + | formation of macroscopic membranes [2]: able to associate to a much smaller extent and formed small and non-uniform pieces of membranous material | membranous structure in Water [2]: −

H2N-AEAEAKAK-COOH (H-AEAEAKAK-OH) [EAK8]
secondary structure and its stability [1]: random coil structure | membranous structure in DMEM [2]: − | membranous structure in PBS [2]: − | formation of macroscopic membranes [2]: did not form membranes | membranous structure in Water [2]: −

H2N-ARARADAD-COOH (H-ARARADAD-OH) [ARD8, 8 amino acid counterpart of RAD16]
membranous structure in DMEM [2]: − | membranous structure in PBS [2]: − | formation of macroscopic membranes [2]: did not form macroscopic membranes | membranous structure in Water [2]: −

H2N-GSNKGAIIGLM-CONH2 (H-GSNKGAIIGLM-NH2) [β-Amyloid (25-35), reference compound]
membranous structure in DMEM [2]: − | membranous structure in PBS [2]: − | formation of macroscopic membranes [2]: None of these peptides produced macroscopic membranes | membranous structure in Water [2]: −

H2N-RPKQQFGLM-COHN2 (H-RPKQQFGLM-NH2) [Substance p, reference compound]
membranous structure in DMEM [2]: − | membranous structure in PBS [2]: − | formation of macroscopic membranes [2]: None of these peptides produced macroscopic membranes | membranous structure in Water [2]: −

KAHAK
binding to B-DNA and conversion to Z-DNA [3]: active in converting B-DNA to Z-DNA only when the histidine was protonated (at low pH)

KAK
binding to B-DNA and conversion to Z-DNA [3]: able to bind to B-DNA and convert it to the Z conformation

KAKAK
binding to B-DNA and conversion to Z-DNA [3]: able to bind to B-DNA and convert it to the Z conformation

B1: zuotin: 433 amino acid yeast putative Z-DNA binding protein, SEQ ID NO: 2 (protein)
chain: MFSLPTLTSDITVEVNSSATKTPFVRRPVEPVGKFFLQHAQRTLRNHTWSEFERIEAEKNVKTVDESNVDPDELLFDTELADEDLLTHDARDWKTADLYAAMGLSKLRFRATESQIIKAHRKQVVKYHPDKQSAAGGSLDQDGFFKIIQKAFETLTDSNKRAQYDSCDFVADVPPPKKGTDYDFYEAWGPVFEAEARFSKKTPIPSLGNKDSSKKEVEQFYAFWHRFDSWRTFEFLDEDVPDDSSNRDHKRYIERKNKAARDKKKTADNARLVKLVERAVSEDPRIKMFKEEEKKEKERRKWEREAGARAEAEAKAKAEAEAKAKAESEAKANASAKADKKKAKEAAKAAKKKNKRAIRNSAKEADYFGDADKATTIDEQVGLIVDSLNDEELVSTADKIKANAAGAKEVLKESAKTIVDSGKLPSSLLSYFV
excess of poly(dG-Br^5dC) in the Z-form that completely inhibits binding to the probe [4]: 4 fold | competition of binding to poly(dG-m^5dC) by non-Z DNA [4]: cannot be competed by 40-fold excess of poly(dG-dC), 200-fold excess of poly(dA-dT), nor several thousand-fold of salmon sperm DNA | affinity for Z-DNA relative to B-DNA ([4]; listed as yeast zuotin): bound Z-DNA more tightly than the bacterially expressed zuotin; also recorded: several hundred-fold enhanced affinity for Z-DNA relative to B-DNA

B2: bacterially expressed zuotin: zuotin expressed in E. coli with T7 pET system, Phe→Val after Met (protein, UniProt P32527 1-433, looked up, variant F2V)
Zuotin: B1 chain with F2V
competition of binding to poly(dG-m^5dC) by non-Z DNA [4]: cannot be competed by 40-fold excess of poly(dG-dC), 200-fold excess of poly(dA-dT), nor several thousand-fold of salmon sperm DNA | affinity for Z-DNA relative to B-DNA [4]: binds less tightly
